According to the domain aggregation screens of Martell et al. (2025):

Assay: soluble fraction after stress (log2 fold change); higher = more stays soluble; pooled small domains, quantitative proteomics
Settings: stress: pH 4
In short: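 Aggregation propensity here comes from the fold change in the soluble amount of each small protein domain after acid stress, measured in pooled custom libraries by high-throughput quantitative proteomics. The acid stress was pH 4. On the log2 scale, higher values mean more of the domain stayed soluble.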

Sequence | soluble fraction (log2)
HMTAQGDSSDAVQRAITEILRHEDPSHPFSDQQLVIKLRTMDISVSRRTVTKYRKLLHIPSSTHRK | 0.0972
HMDTPPGLSPEEQAIIDIITTRGDATINELTASIDIPTPRLMGMLVDMEFRSLIAAIPGGRYRI | -1.42
HMDLLKANNLSQINVDKLTDEEILKYSQQLKQSGLTESQAEQIAIARGMPATEIAKLKQRLISLTNMQ | 0.213
HMIHQIPVNVQKIRQIIGINLNENDYLNYLAKLGFVIDEGLIIVPSFRSDVKTQNDLAEEIARV | -0.236
HMEKIRIQKYLSERGVMSRRAADSALAEGRIAVNGVTARPGDKIDPSSDTLTIDGRIVTTGTAP | ≥ 0.43
HMEGEVVESPLVGVAYLASGPDKPAFVQVGDSVSKGQTLLIIEAMKVMNEVPAPRDGIVTEILV | -0.279
HMDPPVDLTPREQQVLSRIALGMSDKAIAAELGVSHQTVRNHVARIYAKIKVHSRSQAIVWAREKGIP | -0.109
HMVLGSSVAMGQKIGDSDLTWVEVPLSSAFDRFLSEPEWRGSSDLVAARLLEAGVFLTEDDVVE | 0.136
HMFSPSDEDLELAHRQIRAFEEVEANGKSIAVVDGRIVESLHIVTARDTLEKAKAITALAEEM | -0.0013
HMSQQEAQLNSLVKIYESMKPKDAARIFDTLDMDVLLDVVMRMKEARSAAVLAEMTPDRAKEVTLQLAD | -1.8
HMKTATAKIKATPFGWLRVRETPSLNGAEIARVNSGESYKILERGEGWIKIKVSDTVEGWVSEAYVELS | -0.236
HMVAPKDIVMPSFVGKKYTDVVNTPNSSYTFEFKKDEKNSSDYAVGFIMDQKPKAGETVKSNATVTLIVSK | 0.0982
HMHAPRIEVVQIDPEKIGALIGPGGKNIRRITEVTGANLDIDEDNSGKIRVYASDSEAMNRALQEIDLVT | -0.18
HMHQVHKIDGVKYYLHLVEKGNTLYGISKQYNVSVERIEKANTEALSDGLKENQTLLIPVTSDNKKT | 0.0091
HMFDFLELGQAIQDAREKQRITREELAEELGISARHLQSVEKEGQYPSFRLFIQLVTMFHISVDQYI | -0.586
HMPTTNIRAFRLREADPESVKEALSMVMPKTSIYVDARTKSVLVVGLLDELARAAEIVALIDQP | -1.13
HMDDERDRLVQQAMEGLSPALREILLLAYFQRMPYNQIAESLRIPLGTVKSRLHAAVAAFAKRWQELNRS | -0.475
HMKPLIIPLELMQRLSSDKQLEAGFNRFSKSKQHEFAAYIAAAKRVETKVKRLEKIIPLILSGEGLNDR | 0.333
HMFIQLSQEEKKVVEGLQQRSKTHLDALALEVGQNISKTAAMLMELEMKGVVRALPGKYYEL | -0.239
HMDKPIVFLEDTKAHKSSDLQSPVYMTVPKGTIAFVIAEKGDWSQVYAGRVLDRNLASQWVRRGFS | 0.191
HMYQFFVDPGQIQGKRVTITGSDVNHIKNVLRMRIGEEIAVSNGKDGLEYRFGIDEILEDEVIGTLRFVKE | -1.87
HMDVLNPGDKAVTTASWLNFRTGPGMQNKVASVLARNTTVNIIEKSNEWYKVSLANGSTGYVHGMYLSKIT | 0.105
HMTATSKKAAWDEVNKIFPTDYERSAAESERAGYAIFRSTAEGVNAWISDLGDRLEINLPDGKTVNIWIEE | -0.624
HMQLLDIGSAVRIIREPYFGRLGTVVELPPELMEIESGTHARVLKAKLDDGTVAVVPRANVEIIVE | -1.34
HMNGEDVTDAIRLPQISQYASVVSAYPGVRAFLLEMQRDFARKGSVIMDGRDIGTVVLPEAEVKIFLT | 0.278
HMKQEFEMGLPNGVGEQMLAHAIEKFDVKLEHSEFGPKLIGTYEELEKAKVFLYEAIEARLNQLE | -0.875

Sequence | soluble fraction (log2)
HMDAVSTMIENLRVKTGKSLADWVGLAKGSGADKHGAMVGWLKSEHGLTHGYANLIAHETFRSAA | 0.0144
HMGAQKITIPDFSNQEATQVYAELKNMGLEYTESRMNHPSIASGYVIKTEPTKGSEVKAGTTVTVYVSLG | -0.128
HMDYNMEEWSLTADQLKSGDTILILNLGKTATLLESTRGKKNVRVRMGNIKTIVETSSIRGNPHQ | -0.729
HMSKQDRRIRRTRRLLKESLIQLMQEKEFMNISVREVTERADLNRGTFYLHYQDTRHLLQDIENETL | -1.86
HMKNEYAMVIQVNGKLRGNMLVSADLEQKDIERMALDNEDIKRFISHENDVKKMIFVPKKLINIVT | ≥ 0.43
HMTSLQDLLEELRVIRETLTGSQVLSDMQLFSQLRNLGDIKAALTRMQDNPAAARMVGEVDKLLETMFAS | -1.56
HMAIELTPRQLDIIELVRKHAPITGEQIAELLGVTRPSIRSDLGLLVMLGYIDAKPKVGYFAGPRM | -0.893
HMDRSRAEIDLGHVETAIRTLAEGGMVQEYAIGGRSLKRYKMGELLQLKAELENEINMERRKEKMRQ | 0.184
HMKHYIDFIAEQLKTLTAIPSPSGYTKNATDYLMKLLQDMGYEPKLSRKGNVFVTLGGDGEPLVLAAHVD | -0.112
HMSETLESYTTRLKQLEEIADSFQGVDKTFAIQAGREIRVMVVPEQISDDDMILLARDISNQIEENLDY | -0.912
HMSVKLMEVKGASTVVSRQVREAVSIVFPTSSMRLDLVALKARIEGVDAVKRADVYLRNGILEIQIDER | -0.981
HMVLELRIGQIVRGVLLQLVGEREGIVSVGGVPVRARLEAEIPLGRGVMLQVQPGSDANNILLKPV | -0.139
HMSREVTVPPLSGLTLRDAARTLAERGLLMEAEGQGAVHRQDPPAGTRVPTGTPVRVFLTLPEQNS | -0.511
HMGTGADKNSWTIGDKVKHRKWGTGTVVKVTGAGEDAELDIAFKSEGIKRLLAAFAPIEKVK | -0.0706
HMQIDRLFDIVYTLLRKKSATAAELAERFGVSKRTILRDIETLSVAGIPILTSPGKGGGVSISSSF | -0.423
HMTSDYEPSEKDEKAVIGIAFLRNTDVYDVDIDKAEAIKALKANNDIYQKFVKFFPFVKLPSLYDDFQ | -0.109
HMSDESALIAAIEKAIAAQPETAEKVRNGHLPAAGALIGSVMKETKGQADAARVRELLLGLLGQ | 0.0231
HMFYNDLINFDVFRDSRKIGKIENINSRLPQPVFEIMYDSRIVLIPIHEDFIRKIDKVNNIIYLDIPDGLL | -1.69
HMHYKLIIFENHTKSTSLDITPEQARQILGVTDYTPEQYEILAEITNRPASYFMDDLVDYYVD | -1.53
HMDDPQAELLARAVRRVALAAAERTRRNEYGGVYLGLFRQFGISSYRRTPPARLHEALEWLERWRGDLM | -0.378
HMTKASYKITTPSGVNVREGAGKRYAVRKAYPKGKTVTVTQTKEVNGNLWGKTSDGWFAIKYQGAVYASA | 0.2
HMDIEVEVPNLVGMSLDEAKSIIQSMGLVVGLTIEDPSAKVSDNSVTKQKPTYQTGVKLRSGDMIDIWYAG | -0.676
HMSVSTGTITGSVVNLREEPNTSSKVLDKLPKDTVVYVLSASGEWYNVSYGDKTGWVYGEYLA | -0.478
HMIDHKVIRSFRQKRNMTLQELAQKANLSVSYLSEIELGKKQPSLETLDKLSKALNISLEGL | 0.131
HMFDLATVKRVAEEAGMKFTIHPVELRAAHPNTAVLTLKSKAGRILVLKAASVGGGRIRVTEIDGVPAD | 0.219
HMESSSQLGFELARLVESGNDEEARALVQAKELSEADERKWLYHLGNLLHAAGRPLQASAIWREVGT | -0.436

Sequence | soluble fraction (log2)
HMYSLSELERIKNFLTGYMSDYSIMMLDANEITNQVDISLKDYSDDNIESIKAAVLSHGGKTDYLNFIDDS | -1.01
HMKKASLSTVEKKLMKQNYSNDTMENRLARVESYMFGTVFSSDDTQTRIDRISSAYNAQKSS | -0.197
HMNPTLPYGFAKRHGVILLEAGEVAVVGLREGADPAALIETRRALGRPLRVEPLDQATFDRRLSQVYA | -0.15
HMDTNVKLLSPKQADFFASKLANNQNFSSKFAKVGEDMQPFIERISSELQQDISQVIVYMPYLLESGFKQ | -0.126
HMEKALEVKYQKMVELLGDQSTFYVDEVKKIFPEMKKSSLYWNMSKLVEGGYLRRIRNGVYAFNE | -0.124
HMTQTDINQIETLVHEGNKLAAVKLLMDTAHIGLKEAKDIIDNFFLGKQTDLQAAVAQVQTR | -0.722
HMKYGPSTVAVLTVVRESEMGAFLDAETGRTNDDILLHKTQQTEPVHIGDQVKVFLYLDPKHRLTASMRVP | -1.24
HMEDPVAQEARAAFEVGRLLAAATGPVTLAAIRRAIDLPEERLEEILRRLEESGAVRRARDGWLPG | -0.269
HMDTHRLNYSDFVAEVQAQRVSKVVIDGYTIVGQRTNGETFETVRPALQDPKLVDDLLQNNVIIEGKQPE | -0.143
HMDEKVTIPSVSGLLLSEAKTKLVDAGLTVETVYDDESKEAKDTVLSQSPLQYGKVDKGTVVTLTVSSGKG | 0.417
HMYYIITNGKYWVIENPIRPGEYMESTKSSNAKQFTFKQAKNLLNARSKKLGWIRNGYSMVGED | 0.427
HMGDTVSGTMLNLKPGVRVVHQIFGPGRVEETTGASLAEFRVTVRFEQKGLKTLLLQYAALQVINSEN | -1.05
HMKEKQLMTLDDDLYAFLLKHPGIIQKDIYNHFPYDIKGVIADTLYAWDKTGKIKRTKSGNSYIIYT | -0.141
HMNSKMTYSELVTNITNKEVESIKISSTGSTASVKLKNSKSEKEVNIPSLDSFMSYTEEYLKTGDFTLDEE | -0.824
HMEVPDTIIRLRELVAAMPEQWQKVYRLVFMEGLSKAKAGKKIGISDVRVGQLVKKINAAIAGDETLK | 0.0594
HMTNYGTVRPGARGQAVTALQQALIRHGYKLTADGIYGRATRQAVRAFQQKHKLKVDGIVGSKTWALLLAD | -0.0192
HMSREEFLAGLEEALAGEVPASVIRENLNYYNSYISQEMAKGRTVDEIVDEIGEPRIVARTIIDSSEAAGE | -0.246
HMSQTDTDAKDARQKILALLSDGEWHQKTELLKIDAPKEAVSNAIRYLVLEELISIDHAKVRA | -0.465
HMVWMIEKDQSVILVNKLERIQVEALGKALENGNFGDRIRVINNKSGQKLLGIVESEKKIQIISKI | -0.077
HMPTNSDRLIGSDGVVSSKIDNLQGTGKVYISGLTWSARTIDGSEAEEGDIVTVEKIEGATLYVTKR | -0.293
HMETYEFNITDKEQTGMRVDKLLPELNSDWSRNQIQDWIKAGLVVANDKVVKSNYKVKLNDHIVVTEKEV | -0.2
HMLKPKDLHLGDSVRVLSLNLKGTVSSLPDTKGFLFVQMGIMRSKLHISDLQLIDEPVITAP | -0.314
HMSHSDMEEWTDAVRSRRKKLGLTQVQIARRLGVTSHHFSQIESGRTIPSASLQIEIDRLLKNWND | 0.0462
HMVTDTGAIEKVIDEVIAANPKQVQEIADQRAAGHEKPKTLGWLVGQIMKASGGKVNPAAVNEILLKKLG | 0.00199
